The values below come from US20100279318A1 (OMEROS, published 2010).

This assay addresses T1, dopamine D5 receptor-GFP (D5-GFP) (Aequoria victoria, UniProt P21918 1-477; P42212 1-238 = GFP).
T1 construct: also called D5 dopamine receptor; not shown: vector-encoded residues between the KpnI site and the start codon of GFP
Nature of the assay: NLS co-trafficking assay, co-transfected HEK cells, 48 h, confocal microscopy.

B1: Dopamine D1 receptor containing a NLS (D1-NLS) (receptor)
chain: MRTLNTSAMDGTGLVVERDFSVRILTACFLSLLILSTLLGNTLVCAAVIRFRHLRSKVTNFFVISLAVSDLLVAVLVMPWKAVAEIAGFWPFGSFCNIWVAFDIMCSTASILNLCVISVDRYWAISSPFRYERKMTPKAAFILISVAWTLSVLISFIPVQLSWHKAKPTSPSDGNATSLAETIDNCDSSLSRTYAISSSVISFYIPVAIMIVTYTRIYRIAQKQIRRIAALERAAVHAKNCQTTTGNGKPVECSQPESSFKMSFKRETKVLKTLSVIMGVFVCCWLPFFILNCILPFCGSGETQPFCIDSNTFDVFVWFGWANSSLNPIIYAFNAKKFKRFSTLLGCYRLCPATNNAIETVSINNNGAAMFSSHHEPRGSISKECNLVYLIPHAVGSSEDLKKEEAAGIARPLEKLSPALSVILDYDTDVSLEKIQPITQNGQHPT
notes: No fluorescent tag; whether that entry is the full-length receptor cannot be seen from the text; The vector of the untagged D1-NLS is not described; also called D1 receptor with the NLS
With B1, the binding result was “no binding”.
